Measured values published in the DeepSol protein solubility set.

Assay: soluble on expression in E. coli; label from the status in PepcDB or PDB records

Sequence	soluble on expression in E. coli
MTELKNDRYLRALLRQPVDVTPVWMMRRAGRYLPEYKATRAQAGDFMSLCKNAELACEVTLQPLRRYPLDAAILFSDILTIPDAMGLGLYFEAGEGPRFTAPVTCKADVEKLPIPDPEGELGYVMNAVRTIRRELKGEVPLIGFSGSPWTLATYMVEGGSSKAFTVIKKMMYADPQALHLLLDKLAKSVTLYLNAQIKAGAQSVMIFDTWGGVLTGRDYQQFSLYYMHKIVDGLLRENDGRRVPVTLFTKGGGQWLEAMAETGCDALGLDWTTDIADARRRVGHKVALQGNMDPSMLYAPPARIEDEVATILAGFGQGEGHVFNLGHGIHQDVPPEHAGAFVEAVHRLSAQYHN	not soluble
MTESEVRKLLRRMKELDSQTAFRAFYDMTYDRLYRIAYYYVKREEWSQEIVLDVFLKLWEQRSSLPEVKSIEDYCFILVKNASLNYLEKENRRTTVSTETLPEPEAQSDSPEESMISEELFAIYVKALDRLPERCREVFIRIREEKQSYAQVAEELGISTKTVDAQLQKATIRLKEAISMVNNDR	not soluble
MTESYDVVVVGGGPVGLATAWQVAERGHRVLVLERHTFFNENGGTSGAERHWRLQYTQEDLFRLTLETLPLWRALESRCERRLIHEIGSLWFGDTDVVTNEGQISGTAAMMDKLSVRYEWLKATDIERRFGFRGLPRDYEGFLQPDGGTIDVRGTLAALFTLAQAAGATLRAGETVTELVPDADGVSVTTDRGTYRAGKVVLACGPYTNDLLEPLGARLAYSVYEMAIAAYRQATPVTEAPFWFAFQQPTPQDTNLFFGFGHNPWAPGEFVRCGPDFEVDPLDHPSAATGVADRRQMDRLSGWLRDHLPTVDPDPVRTSTCLAVLPTDPERQFFLGTARDLMTHGEKLVVYGAGWAFKFVPLFGRICADLAVEDSTAYDISRLAPQSALLEHHHHHH	soluble
MTETLDHMDQSKIDHQKLAQQLLAQAKAEGVELVGPNGLLNQLTANVLETALEAEMDEHLGYEKHHVTGRNRENSRNGRRTKTVLTEIGPVQIQVPRDTDASFDPQIVKKRQRRLTGVDEIILSLSAKGLTTGEIAAHFDDVYGASVSKETISKITDKVLTEMAEWSVRPLDPVYPVLFIDAIHVKIRDGQVANRPVYVAIGVTTAGEREILGLWAGDGGEGAKFWLAVLTEIRNRGVADVCIAVCDGLKGLPDAITTVWPLTVVQTCLIHLLRNTFRYASRQYWDEMSRDLRPIYTAVNEAAAKEQFTEFADKWGPRYPAIVRLWESAWSEFVPFLDYDPEIRRVICSTNAIESLNARYRRAVRARGHFPSEQAALKCLYLATRSLDPTGKGRARWVTRWKPALNAFAITFEGRITPTVI	not soluble
MTFLDRTPDIILTMNEEGVIVSQNETARRVFGDVGGKIYSEICKDDTCSVGDRYYSMVAIKGFRRTIVVGRDITERIRLEKELEDRERKFKALAELSPAGILVHHQGTILFVNEALCQIHGYTREELLNRKVWDLIHPDYHDLARAMMQKRLEGEKPVYELKTIRKDGSERWVLVAGGAIDWDGKKSVMAFAIDITDKKMIEQRLAEREELFRSIFNISPAGLYILVGGKFKLVNPAFERITGYSAEELVGMKSLEIVAEEDREFVRRKAIEMLKGRETEPYKYRVVRKDGKIRWVYENVASIAYEGERAALGSVIDITEIEEERKRLEELTSMLELINKTLRHDVLNALTSAMALLEMGIEESNKDYLNKALTSINRAVSIVRNMRAFEDAVKSGELRCIDVGELVSEVAKSFENVSVKGEGRALADEGLRSVVENIVNNAFIHSGTDRVEITVSEGKEWCEIRIADFGIGIPDEIKQRIFEEGFKYGKAAQTGLGLFIARKIVERYAGEIWVEDNEPKGSVFVIRLKKC	not soluble
MTFLKEYVIVSGASGFIGKHLLEALKKSGISVVAITRDVIKNNSNALANVRWCSWDNIELLVEELSIDSALIGIIHLATEYGHKTSSLINIEDANVIKPLKLLDLAIKYRADIFLNTDSFFAKKDFNYQHMRPYIITKRHFDEIGHYYANMHDISFVNMRLEHVYGPGDGENKFIPYIIDCLNKKQSCVKCTTGEQIRDFIFVDDVVNAYLTILENRKEVPSYTEYQVGTGAGVSLKDFLVYLQNTMMPGSSSIFEFGAIEQRDNEIMFSVANNKNLKAMGWKPNFDYKKGIEELLKRL	not soluble
MTFNQEQDYWAGYKANERALIIQTWSGFGRYAPDHLYPPHILPLDTDNETLGTTVLQALANSRTFVYDSPEDQDFFDTEKIRQRYEDWVAKLCGNLGYKTRRALFKNMMSVDIWLHNGCLKISPSRHVKLEAWDAIDADDVILSLDNSPEEIGAGLKLALSRCR	soluble
MTFRNCVAVDLGASSGRVMLARYERECRSLTLREIHRFNNGLHSQNGYVTWDVDSLESAIRLGLNKVCEEGIRIDSIGIDTWGVDFVLLDQQGQRVGLPVAYRDSRTNGLMPQAQQQLGKRDIYQRSGIQFLPFNTLYQLRALTEQQPELIPHIAHALLMPDYFSYRLTGKMNWEYTNATTTQLVNINSDDWDESLLAWSGANKAWFGRPTHPGNVIGHWICPQGNEIPVVAVASHDTASAVIASPLNGSRAAYLSSGTWSLMGFESQTPFTNDTALAANITNEGGAEGRYRVLKNIMGLWLLQRVLQERQINDLPALIAATQALPACRFIINPNDDRFINPDEMCSEIQAACRETAQPIPGSDAELARCIFDSLALLYADVLHELAQLRGEDFSQLHIVGGGCQNTLLNQLCADACGIRVIAGPVEASTLGNIGIELMTLDELNNVDDFRQVVSTTANLTTFTPNPDSEIAHYVAQIHSTRQTKELCA	not soluble
MTGGFTPDSGRYHLYISHACPWAHRTMIFRTLKGLEDHITISAVHPDMLGEGWTFEPDDNGATGDTLYNSAFARDIYTRADPRFTGRVTVPILWDKQRETIVSNESSEIIRMFNAAFNGLTGNSDDYWPEPLRDAIAPVNERIYDTFNNGVYKAGFATTQQAYDAAIVPLFDTLDWLEERLSHNRYLMGDQLTEADWRLFTTLVRFDPVYHLHFKCNRKRIVDYPNLWGYTRELYQTPGVADTVNFDHIVRHYHYSHETINPNRIIPINPVLDFHRPHGRGLEHHHHHH	not soluble
MTGKKTLSIVGASGYAGGEFLRLALSHPYLEVKQVTSRRFAGEPVHFVHPNLRGRTNLKFVPPEKLEPADILVLALPHGVFAREFDRYSALAPVLVDLSADFRLKDPELYRRYYGEHPRPDLLGRFVYAVPELYREALKGADWIAGAGCNATATLLGLYPLLKAGVLKPTPIFVTLLISTSAGGAEASPASHHPERAGSIRVYKPTGHRHTAEVVENLPGRPEVHLTAIATDRVRGILMTAQCFVQDGWSERDVWQAYREAYAGEPFIRLVKQKKGVHRYPDPRFVQGTNYADIGFELEEDTGRLVVMTAIDNLVKGTAGHALQALNVRMGWPETLGLDFPGLHP	soluble
MTGQNGQVARISPGKFRQLGPVNWLVAKLAARAVGAPQMHLFTTLGYRQYLFWTFAIYTGRLLHGRLPGVDTELVILRVAHLRSCEYELQHHRRMARRRGLDANTQATIFAWPDVPDGDGPRKVLSARQQALLQATDELIKDRTITAGTWERLATHLDPRLLIEFCLLATQYDAIAATITALAIPPDNPQ	soluble
MTGQTVECIRSAGVVGAGGAGLPTHIKADASVDTVLVNGASCEPLLMSDPYLIQAHPDIVIRGLLAVMDCTGARRGIICLKGKHAAAMAAVRGAVTREGSGRLEVFELRDFYPAGDEHVLVHEVLGRTVPQGGIPLQIGAVVSNVETLYNVALAMEGAPVTHRYVTVSGEVKRHMVVKVPVGTLVSDVLTFAGGPAITEYKVVDGGPMMGRVLPHTGRPVTKTTSGLLVLPPDHTVVARKIMDPEKVRRITTSICCQCSHCTDLCPRNLLGHSLHPHRLMRVLEGQMHAGTVAREALLCSECGLCEKFACPMMVSPREINAQIKQVLRREGVRWESTGEEPVPHPFRKSRYVATGRLLRRLDLVQYDTHPGYAGEYTPHMVRIPLAQHIGAPAVCVVAPGDTVRTGDLIGEIPEKSMGARVHASISGRVESVEDGMVTIKAC	not soluble
MTHSLVCPETVSRVSSVLNRNTRQFGKKHLFDQDEETCWNSDQGPSQWVTLEFPQLIRVSQLQIQFQGGFSSRRGCLEGSQGTQALHKIVDFYPEDNNSLQTFPIPAAEVDRLKVTFEDATDFFGRVVIYHLRVLGEKV	soluble
MTHVTLRSEFETLIDPYAPVAQVGTGFDFTEGPIWHPIDHYLLFSDMPGDVRRRWDARRGMAEVKRPSNKCNGMTYDAELNLIVCEHATSSLIRERPDGRREVLASHFGGQELNSPNDVCVHSSGAIYFSDPWYGRMPVYGVERPRQLGFQGVYRVMPGGEPKLVVDRNLFDQPNGLCFSPDERLLYVNDTVQALIRVFDVNADGTLSNARVFASSIKSELEPGLPDGMKCDQHGNVWVTAPGGVWVYSPRGELLGKVRVPELVANLAWGGPDFRTLYLTSTHSVYAIPTRVGPRHEPYMSGRRGGAGASAGPAAAAPILTDGEMRLDPQRCAMIIQDLQNDVIMDGGAFDGSGAPAHAKQQHVVENVRRLAEAARARGVAIIHVWFVVEPGAPGVTLNAPLFEGLVDSKAMVRGSWGAAPVSGLEPRPGDFVVEKMRMSAWEGTRLETILKATGRDMIINTGAWTNMSVEHTARTGADKGYFMIVPEDCCSTMNADWHSASINFAMQNVAIVTRADAVIRALGLEHHHHHH	not soluble
MTIEDLQAFMKREFPQLGEAFEIVTVDEGSATMRLHADAQHLRPGGTVSGPSLFALADVAAYAAILAHIGPVALAVTTNLNINFLRKPSPGTVEAVAHLLKLGKRLAVLDISLTDGANGELVAHATATYSIPPRLEHHHHHH	soluble
MTIIINMRSGVDEVKLRIAAKLIREGKLVAFPTETVYGLGADALNERAVRRIFEAKGRPADNPLILHIAKFSQVYELAREVPEEAKVLVERFWPGPLTIVLPRKDVVPDVTTGGLDTVAIRMPANEIALKLIELSGKPIAAPSANISGKPSPTSAEHVADDFYGKIECIIDGGETRIGVESTVIDLTEHPPVLLRPGGLPLEEIEKVIGKVRIHPAVFGKKVDTPKSPGMKYKHYAPNAEVIVVEGPREKVKGKITELVKELKERGKKVGVIGSESYNADEFFFLGSSVEEVAKNLFKALRYMDKAGVDVVIAEGVEERGLGLAVMNRLRKASGYKIVKA	soluble
MTIQLINESSNTAKFQQICEKWQLVHDKSASLALVLTDTRLELRKLDEAKLGAIAVNFVDGTLAHRRKFGGGRGEAIAKAVGIKGNYLPSVIDATAGLGRDAFVLAAIGCKVTLVERHPVIAALLEDGLTRAYLDAEIGEFMQQRMQLANVHNIAQLDTTTQSADVVYLDPMYPHKQKSALVKKEMRVFQHLVGADLDADQFLLPAKALATKRVVVKRPDYAPPLAEQHPSFSQKTKNHRFDIYLSPLQKRLEHHHHHH	soluble
MTISELLQYCMAKPGAEQSVHNDWKATQIKVEDVLFAMVKEVENRPAVSLKTSPELAELLRQQHSDVRPSRHLNKAHWSTVYLDGSLPDSQIYYLVDASYQQAVNLLPEEKRKLLVQL	not soluble
MTIWEISEKADYIAQRHRRLQDQWHIYCNSLVQGITLSKARLHHAMSCAPDKELCFVLFEHFRIYVTLADGFNSHTIEYYVETKDGEDKQRIAQAQLSIDGMIDGKVNIRDREQVLEHYLEKIAGVYDSLYTAIENNVPVNLSQLVKGQSPAA	soluble
MTKDILILAVETSCDETSVSVIKNGRDILSNTVLSQIESHKRFGGVVPEVASRHHVEGITATINEALGDADVSIEDIDAIAVTEGPGLIGALLIGVNAAKALAFAYDKPLIPVHHIAGHIYANHIEEPLTFPLIALIVSGGHTELVYMKDHLSFEVIGETRDDAVGEAYDKVARTIGLNYPGGPQVDRLAAEGEDTYSFPRVWLDKDSYDFSFSGLKSAVINQLHNQRQKNIPIIEANVATSFQNSVVEVLTFKAIQACKEYGVQRLIVAGGVASNKGLRQSLADQCKVNDIQLTIPSPKLCTDNAAMIGVAGHYLYQQGRFADLALNGHSNIDLEEYSAE	not soluble
